Experiment [1] concerns the target α-synuclein (αS) fibrils (human) (UniProt P37840). Nature of the experiment: microfluidic diffusional sizing; in solution; labelled Hsc70 with αS fibrils (concentrations as monomer equivalents); 50 mM HEPES-KOH pH 7.5, 50 mM KCl, 5 mM MgCl2, 2 mM DTT; in the presence of ATP.
For experiment [2] the target is unchanged. The experiment in a line: microfluidic diffusional sizing; in solution; labelled Hsc70 with αS fibrils (concentrations as monomer equivalents); 50 mM HEPES-KOH pH 7.5, 50 mM KCl, 5 mM MgCl2, 2 mM DTT; in the presence of ATP and DnaJB1.
Experiment [3] shares this target. Nature of the experiment: microfluidic diffusional sizing; in solution; DnaJB1 or Apg2 alone with αS fibrils (concentrations as monomer equivalents); 50 mM HEPES-KOH pH 7.5, 50 mM KCl, 5 mM MgCl2, 2 mM DTT.

Sequence of heat shock cognate Hsc70 (HSPA8) (P11142 whole entry): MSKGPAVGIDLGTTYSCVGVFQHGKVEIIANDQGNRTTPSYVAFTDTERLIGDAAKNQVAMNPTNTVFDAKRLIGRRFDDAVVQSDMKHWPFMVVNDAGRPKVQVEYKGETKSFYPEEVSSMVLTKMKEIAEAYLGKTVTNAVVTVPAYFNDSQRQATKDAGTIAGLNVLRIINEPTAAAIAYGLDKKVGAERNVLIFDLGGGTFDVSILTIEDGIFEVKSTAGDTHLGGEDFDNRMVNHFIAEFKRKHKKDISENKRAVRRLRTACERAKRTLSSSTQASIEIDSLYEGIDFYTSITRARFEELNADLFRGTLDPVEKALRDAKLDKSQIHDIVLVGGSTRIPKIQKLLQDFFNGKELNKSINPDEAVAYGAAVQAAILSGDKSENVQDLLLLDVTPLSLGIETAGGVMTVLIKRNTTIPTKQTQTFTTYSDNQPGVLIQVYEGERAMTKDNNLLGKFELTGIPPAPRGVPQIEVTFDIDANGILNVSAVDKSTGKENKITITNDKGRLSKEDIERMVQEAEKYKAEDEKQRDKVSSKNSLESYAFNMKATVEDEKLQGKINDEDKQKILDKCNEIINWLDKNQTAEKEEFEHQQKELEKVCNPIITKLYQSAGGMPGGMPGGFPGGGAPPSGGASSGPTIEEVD
Sequence of DnaJB1 (Hsp40 class B J-protein) (P25685 whole entry): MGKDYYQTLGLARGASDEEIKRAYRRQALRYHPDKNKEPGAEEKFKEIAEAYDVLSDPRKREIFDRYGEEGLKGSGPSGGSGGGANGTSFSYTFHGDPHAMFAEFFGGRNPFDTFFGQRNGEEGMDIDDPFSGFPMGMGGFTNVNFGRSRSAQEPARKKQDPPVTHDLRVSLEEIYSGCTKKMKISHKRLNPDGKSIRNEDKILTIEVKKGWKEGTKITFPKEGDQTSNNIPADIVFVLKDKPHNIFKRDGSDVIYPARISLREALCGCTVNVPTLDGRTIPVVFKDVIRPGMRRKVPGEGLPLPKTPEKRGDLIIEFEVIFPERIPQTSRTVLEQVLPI

With “heat shock cognate Hsc70 (HSPA8) (from UniProt P11142 1-646) (natural protein)”, the Kd in experiment [1] is 139 nM; in experiment [2], 47.5 nM. Also, the stoichiometry N (αS monomer units per Hsc70 molecule) in experiment [1] amounted to 5.3.
As to “DnaJB1 (Hsp40 class B J-protein) (from UniProt P25685 1-340) (natural protein)”, the Kd in experiment [3] was found to be 246 nM.

As usually defined, the Kd is the free concentration of one partner at which half of the binding sites on the other are occupied at equilibrium, for simple one-to-one binding.
